The subject of assay [1] is testicular tumors in inh-KO mice. Briefly: Testicular tumor mass in inh-KO mice (necropsy). Format: in vivo, mouse. The following applies: 8-week-old male inh-KO mice; single dose 30 mg/kg SC; necropsy 14 days after injection; FIG. 4A, 4B. On the procedure:
(§1) 12-week-old female and 8-week-old male inh-KO mice with fully established ovarian or testicular tumors received a single injection of PBS or sActRIIB (30 mg/kg, SC). As a control, age-matched wild-type littermates received a single injection of PBS. Ovarian and testicular organ weights were determined by necropsy 14 days after the injection.

Another assay relates to Ang-1 mRNA. Description: Ang-1 mRNA in cell cultures (real-time RT-PCR). Type of assay: cell-based, human, bovine. The following applies: BAEC, MRC-5 and CCD-Lu cultures treated with recombinant activin-A, without or with sActRIIB; FIG. 16B.
The next assay has as its system caspase-3. Briefly: Active caspase-3 immunostaining in TOV-21G xenograft tumor sections. Format: in vivo, mouse. Particulars: FIG. 15C. On the procedure:
(§2) 5×10^6 TOV-21G ovarian cancer cells were implanted subcutaneously into individual female athymic nu/nu mice (Harlan). Treatment was initiated at day 12 after tumor implantation, when the average tumor volume reached approximately 150 mm^3. The mice received PBS, sActRIIB (30 mg/kg, SC, 1×/week) or activin-A antibody (30 mg/kg, SC, 2×/week). In a separate chemotherapy combination experiment, the mice were treated with PBS, sActRIIB (10 mg/kg, SC, 1×/week), 5-FU (50 mg/kg, IP, 3 cycles, 4 daily injections per cycle) or sActRIIB and 5-FU combination at the same doses above.
(§3) Zinc-formalin fixed paraffin tumor tissue sections of 4 μm in thickness were prepared. The sections were subjected to antigen retrieval by microwave 3 min in Unmask solution (Vector H-3300) followed by incubation in 10 μg/ml Proteinase-K for 20 min and in 1% H2O2 in dH2O for 10 min at room temperature. The sections were further incubated in 0.1% Tween-20 in PBS for 3 min to permeabilize the cell membrane and in goat serum for 30 min to block non-specific binding. The sections were then incubated at room temperature with specific primary antibody for 3 hours followed by incubation in biotinylated or fluorescently labeled secondary antibody. […] The immunostained tissue sections were analyzed and photographed using a Nikon Eclipse 90i microscope equipped with DS-Ril camera. […]

A further assay concerns Ang-2 mRNA. Briefly: Northern blot of Ang-2 mRNA in gonadal tumors of inh-KO mice. Type of assay: in vivo, mouse. Particulars: ovarian and testicular tumors of inh-KO mice; FIG. 8C. On the procedure: as §1
Total RNA was isolated from individual tissue samples after homogenization in Trizol (Invitrogen). A pool of 10 μg RNA for each group containing equal amounts of total RNA isolated from individual animals was subjected to Northern blot analysis. The northern probes used for βA and Ang-2 were generated by using RT-PCR (Phusion, Biolabs). βA primer set: 5′-CCCTTGCTTTGGCTGAGAGGA-3′ and 5′-TC ACA GGT CGT CGT AGG TCG-3′; Ang-2 primer set: 5′-TGT GCC GGG GAG AAG AG and 5′-TACAGTAGTGGGTTGAGGTTC-3′. To normalize the expression, northern blot membranes were re-probed with β-actin.

Assay [2] in a line: Body weight of TOV-21G xenograft-bearing mice. Format: in vivo, mouse. Particulars: TOV-21G xenograft-bearing athymic nude mice; during the course of the experiment; vehicle controls lost 10%. On the procedure:
In another experiment, athymic nude mice received TOV-21G xenografts in the abdominal flank. After 14 days, subcutaneous hu-sActRIIB-Fc was administered weekly alone or in combination with 5-FU.

Assay [3] concerns ovarian tumors in inh-KO mice. Briefly: Light microscopy (H&E) of ovaries of inh-KO mice. Format: in vivo, mouse. The following applies: female inh-KO mice; FIG. 7A. As for the experimental part:
as §1
Testes and ovaries from inh-KO mice were fixed with Zinc-formalin. Tissue sections were subjected to H&E staining and then examined with a Nikon Eclipse 90i microscope.

The subject of assay [4] is VEGF. Briefly: Serum VEGF in inh-KO mice (ELISA). Type of assay: in vivo, mouse. The following applies: inh-KO mice with advanced ovarian and testicular tumors; single dose; FIG. 8A. As for the experimental part:
as §1
(§4) The serum VEGF levels in inh-KO mice were measured by using immunoassay kit (R&D Systems), and the levels of human VEGF and Ang-1 in cell line culture medium were quantified using ELISA kits purchased from Invitrogen (VEGF) and R&D Systems (Ang-1), by following the manufacturers' recommended protocols.

Assay [5] deals with VEGF. Briefly: VEGF release into culture medium (ELISA). Type of assay: cell-based, human. The following applies: TOV21G, MRC-5, CCD-Lu and TPH-1 cells treated with activin-A, without or with sActRIIB; FIG. 17A. As for the experimental part:
as §4

Assay [6] relates to Ang-1. Description: Ang-1 immunostaining in TOV-21G xenograft tumor sections. Type of assay: in vivo, mouse. The following applies: treated vs untreated sections (strong immunostaining); FIG. 15A. As for the experimental part:
as §2, §3

Assay [7] has as its system Ang-1. Briefly: Ang-1 immunostaining in gonadal tumor sections of inh-KO mice. Format: in vivo, mouse. Particulars: ovarian and testicular tumors of inh-KO mice; FIG. 8B. On the procedure:
as §1
Zinc-formalin fixed paraffin tumor tissue sections of 4 μm in thickness were prepared. The sections were subjected to antigen retrieval by microwave 3 min in Unmask solution (Vector H-3300) followed by incubation in 10 μg/ml Proteinase-K for 20 min and in 1% H2O2 in dH2O for 10 min at room temperature. The sections were further incubated in 0.1% Tween-20 in PBS for 3 min to permeabilize the cell membrane and in goat serum for 30 min to block non-specific binding. The sections were then incubated at room temperature with specific primary antibody for 3 hours followed by incubation in biotinylated or fluorescently labeled secondary antibody. Substrate developed in Vector SG kit (SK-4700) or DAB and nuclear-counterstained in Vector Fast Red (H-3403) or in hematoxylin. The immunostained tissue sections were analyzed and photographed using a Nikon Eclipse 90i microscope equipped with DS-Ril camera. […]

The test system of assay [8] is G361 human melanoma xenografts. Description: G361 human melanoma xenograft growth in nude mice. Type of assay: in vivo. Particulars: sActRIIB 20 mg/kg SC 1x/week from day 14, FIG. 19. On the procedure:
5×10^6 G361 melanoma cells and 5637 bladder carcinoma cells, respectively, were inoculated SC into individual athymic nu/nu mice (Harlan Inc). Treatment was initiated 4 days after 5637 implantation and 14 days after G361 implantation, when the tumor volumes reached 130 mm^3−150 mm^3 5637-implanted mice received PBS or activin-A antibody (10 mg/kg, SC, 2×/week). G361-implanted mice received PBS or sActRIIB (20 mg/kg, SC, 1×/week).
For all xenograft experiments, the tumor sizes were measured longitudinally by using an electronic caliper Immediately prior to the 1st dose, the tumor-bearing mice were randomized to ensure even distribution in tumor sizes across different groups. Tumor volumes (mm^3) were calculated as tumor length (mm)×tumor width (mm)×tumor height (mm) Tumor weights were determined by necropsy.
A general note: Xenograft models place foreign cells or tissue in a host animal.

A further assay relates to TOV-21G cells. Briefly: In vitro proliferation assay of TOV-21G cells (IncuCyte). Particulars: increasing concentrations; FIG. 14. Type of assay: cell-based, human. On the procedure:
In vitro growth rates of TOV-21G cancer cells were analyzed by using a real-time live cell imaging system (IncuCyte) following the manufacturer's recommended protocol.

B1: sActRIIB: extracellular domain of human activin type-2B receptor fused to IgG2 Fc, expressed in CHO cells; sequence in the 26th table (protein)
chain: ETRWCIYYNANWELERTNQGLERCEGEQDKRLHCYASWRNSSGTIELVKKGCWLDDFNCYDRQECVATEENPQVYFCCCEGNFCNERFTHLPEAGGPEVTYEPPPTAPTGGGGSVECPPCPAPPVAGPSVFLFPPKPKDTLMISRTPEVTCVVVDVSHEDPEVQFNWYVDGVEVHNAKTKPREEQFNSTFRVVSVLTVVHQDWLNGKEYKCKVSNKGLPAPIEKTISKTKGQPREPQVYTLPPSREEMTKNQVSLTCLVKGFYPSDIAVEWESNGQPENNYKTTPPMLDSDGSFFLYSKLTVDKSRWQQGNVFSCSVMHEALHNHYTQKSLSLSPGK
modifications: left off: a dimerising Fc or GST
For B1, the testicular tumor mass result in assay [1] is listed as “dramatic regression of testicular tumor masses to the WT control levels”. For the same molecule, the “levels of Ang-1 mRNA” value in the assay on Ang-1 mRNA is listed as “prevented this induction”. The “active caspase-3 in TOV-21G tumors” value in the assay on caspase-3 was “profound increases”. Further, the “Ang-2 mRNA expression (Northern blot)” value with Ang-2 mRNA is “inhibited its overexpression”. Moreover, the body weight increase in [2] stood at 26%. Also, the “ovarian morphology (light microscopy)” value in assay [3] is “the ovaries were normal in size and contained many recognizable follicles, minimal tumor cell invasion and few hemorrhagic lesions”. Besides, in the assay on VEGF [4], the “circulating VEGF levels” value is reported as “rapidly lowered the elevated VEGF to WT control levels”. In addition, in the assay with VEGF [5], the “release of VEGF into the culture medium” value is “blocked completely”. Further, the “Ang-1 immunostaining in TOV-21G tumor sections” value in the assay with Ang-1 [6] is given as “virtually none”. For the same molecule, the “Ang-1 immunoreactivity in tumor sections” value in the assay on Ang-1 [7] is “completely abolished the VEGF and Ang-1 inductions”. The “growth rates and sizes of G361 melanoma xenografts” value in assay [8] is “significantly decreased the growth rates and sizes”. Moreover, the “TOV-21G cell proliferation in vitro” value in the assay with TOV-21G cells was “no direct effect”.
